This experiment deals with T1, recombinant full-length SARS-CoV-2 nucleocapsid protein (Np) (SARS-CoV-2, UniProt P0DTC9 1-419).
T1 construct: also called N protein; recombinant Np
In words: pull-down. The settings on record: both partners purified.

B1: HALO-tagged recombinant full-length human DDX3X (enzyme, UniProt O00571 1-662, looked up)
chain: MSHVAVENALGLDQQFAGLDLNSSDNQSGGSTASKGRYIPPHLRNREATKGFYDKDSSGWSSSKDKDAYSSFGSRSDSRGKSSFFSDRGSGSRGRFDDRGRSDYDGIGSRGDRSGFGKFERGGNSRWCDKSDEDDWSKPLPPSERLEQELFSGGNTGINFEKYDDIPVEATGNNCPPHIESFSDVEMGEIIMGNIELTRYTRPTPVQKHAIPIIKEKRDLMACAQTGSGKTAAFLLPILSQIYSDGPGEALRAMKENGRYGRRKQYPISLVLAPTRELAVQIYEEARKFSYRSRVRPCVVYGGADIGQQIRDLERGCHLLVATPGRLVDMMERGKIGLDFCKYLVLDEADRMLDMGFEPQIRRIVEQDTMPPKGVRHTMMFSATFPKEIQMLARDFLDEYIFLAVGRVGSTSENITQKVVWVEESDKRSFLLDLLNATGKDSLTLVFVETKKGADSLEDFLYHEGYACTSIHGDRSQRDREEALHQFRSGKSPILVATAVAARGLDISNVKHVINFDLPSDIEEYVHRIGRTGRVGNLGLATSFFNERNINITKDLLDLLVEAKQEVPSWLENMAYEHHYKGSSRGRSKSSRFSGGFGARDYRQSSGASSSSFSSSRASSSRSGGGGHGSSRGFGGGGYGGFYNSDGYGGNYNSQGVDWWGN
notes: TEV site between tag and DDX3X; The helicase and EMSA assays used another construct (pET30a(+)-DDX3X, purified from ShuffleT7 E. coli); also called HALO-DDX3X; Halo-tagged DDX3X; not shown: HaloTag, N-terminal, kept
On to B1, for which the binding result was “binds”.

Source of the values: paper PMC10058294, “Interaction of SARS-CoV-2 Nucleocapsid Protein and Human RNA Helicases DDX1 and DDX3X Modulates Their Activities on Double-Stranded RNA” (International Journal of Molecular Sciences, 2023).
